We go through four molecules from patent publication US20050084449A1.

Changes are numbered by the printed parent chain.

To fix the notation:
B1: anti-TIM-1 mAb 1.37 (antibody, human IgG2, V domains shown)
VH: EVQLVESGGGLVQPGGSLRLSCAASGFTFTNYWMSWVRQAPGKGLEWVANIQQDGSEKYYVDSVRGRFTISRDNAKNSLYLQMNSLRAEDSAVYYCARWDYWGQGTLVTVSS
VL: DIVMTQTPLSSTVILGQPASISCRSSQSLVHSDGNTYLNWLQQRPGQPPRLLIYMISNRFSGVPDRFSGSGAGTDFTLKISRVEAEDVGVYYCMQATESPQTFGQGTKVEIKR
B2: anti-TIM-1 mAb 1.29 (antibody, human IgG2, V domains shown)
VH: QVQLQESGPGLVKPSETLSLTCTVSGGSVSSGGYYWSWIRQPPGKGLEWIGFIYYTGSTNYNPSLKSRVSISVDTSKNQFSLKLSSVTAADAAVYYCARDYDWSFHFDYWGQGTLVTVSS
VL: DIQMTQSPSSLSASIGDRVTITCRASQGIRNDLGWYQQKPGKAPKRLIYAASSLQSGVPSRFSGSGSGTEFTLTISSLQPEDFATYYCLQHNSYPLTFGGGTKVEIKR
B3: anti-TIM-1 mAb 2.61 (antibody, human IgG4, V domains shown)
VH: QVQLVEAGGGVVQPGRSLRLSCAASGFTFRSYGMHWVRQAPGKGLKWVAVIWYDGSNKYYTDSVKGRFTISRDNSKNTLYLQMNSLRAEDTAVYYCVRDYYDNSRHHWGFDYWGQGTLVTVSS
VL: B2 VL with L11R, S12C, I15V, G34A, G66R, T85A, L96P, T97S, G100Q, V104L
B4: anti-TIM-1 mAb 2.70 (antibody, V domains shown)
VH: B3 VH with A7S, T28I, R30S, S31R, Y59L, T61A, V97A
VL: DIVMTQTPLSLPVTPGEPASISCRSSRSLLDSDDGNTYLDWYLQKPGQSPQLLIYTLSYRASGVPDRFSGSGSGTDFTLKISRVEAEDVGVYYCMQRVEFPITFGQGTRLEIKR

In the experiment the target is TIM-1 antigen (soluble extracellular domain of TIM-1, CG57008-02, with a V5-HIS tag) (human) (UniProt Q96D42). The experiment can be described thus: BIAcore 2000, mAb captured on goat anti-human surface, TIM-1 antigen injected, 25 C. For orientation: Surface plasmon resonance follows binding to a sensor surface in real time, without labels.
For orientation: Kd means the concentration at which binding is half-saturated. A low value points to tighter binding. B1 returned a Kd of 2.78 nM.

B2 had an equilibrium dissociation constant (Kd) of 3.64 nM.

For the molecule B3, the Kd came to 1 nM. Against the preceding molecule, the Kd is about 3.6-fold lower.

Molecule B4 had an equilibrium dissociation constant (Kd) of 2.71 nM.
